This is an account of results in patent US20100233802A1.

pKd: −log10 of the molar value.

For experiment [1], the target named is SNAP-25 peptide comprising amino acids 134-197 of SEQ ID NO: 5 (human). Put plainly: SPR, BIAcore 3000, peptide on CM5 chip, antibody as analyte, 1:1 model.
Experiment [2] deals with SNAP-25 peptide comprising amino acids 134-206 of SEQ ID NO: 5 (human). Described as above.

As to “mouse α-SNAP-25 monoclonal antibody MC-6050 (Research & Diagnostic Antibodies)”, in experiment [1], the pKd was 9.30, the off-rate (koff) is 0.000882 s⁻¹ and the kon was determined as 1.78e+06 M⁻¹ s⁻¹. In experiment [2], this substance had a pKd of 4.70, a koff of 0.00607 s⁻¹ and a kon of 306 M⁻¹ s⁻¹.
Turning to “mouse α-SNAP-25 monoclonal antibody MC-6053 (Research & Diagnostic Antibodies)”, in experiment [1], the negative-log Kd (pKd) is 9.29, the koff came out at 0.00118 s⁻¹ and the kon is 2.32e+06 M⁻¹ s⁻¹. In experiment [2], this substance showed a pKd of 6.62 and a dissociation rate constant (koff) of 2.56e-05 s⁻¹.
